In patent publication US20200199241A1 (Chugai, published 2020):
Like-named read-outs stand apart in the source and are kept apart here.

T1: human FcγRIIa(R) (human, UniProt P12318 36-217)
T1 construct: also called hFcgRIIa(R); FcγRIIa type R
T1 chain: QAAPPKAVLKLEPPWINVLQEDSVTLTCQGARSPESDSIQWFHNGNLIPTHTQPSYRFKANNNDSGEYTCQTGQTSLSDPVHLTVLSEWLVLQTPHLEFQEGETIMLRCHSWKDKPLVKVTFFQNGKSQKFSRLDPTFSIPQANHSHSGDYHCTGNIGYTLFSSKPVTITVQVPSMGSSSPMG

T2: human FcγRIIa(H) (human, UniProt P12318 36-217)
T2 construct: also called hFcgRIIa(H); FcγRIIa type H
T2 sequence: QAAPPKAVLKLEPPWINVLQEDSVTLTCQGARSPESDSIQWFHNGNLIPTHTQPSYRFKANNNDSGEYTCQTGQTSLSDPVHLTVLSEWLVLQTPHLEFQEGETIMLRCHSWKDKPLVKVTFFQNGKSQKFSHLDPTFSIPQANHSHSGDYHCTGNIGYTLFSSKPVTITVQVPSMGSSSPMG

T3: human FcγRIIb (human, UniProt P31994 43-217, limits assumed)
T3 construct: also called hFcgRIIb; FcγIIB
T3 sequence: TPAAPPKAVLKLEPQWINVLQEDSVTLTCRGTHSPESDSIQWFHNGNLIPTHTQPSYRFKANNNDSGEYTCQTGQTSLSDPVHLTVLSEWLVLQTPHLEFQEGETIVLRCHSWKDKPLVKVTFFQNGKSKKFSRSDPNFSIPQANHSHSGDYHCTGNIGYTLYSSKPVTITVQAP

T4: mouse FcγRI (mouse, UniProt P26151 25-297)
T4 construct: bought; also called mFcgRI; mFcgR 1
T4 sequence (looked up): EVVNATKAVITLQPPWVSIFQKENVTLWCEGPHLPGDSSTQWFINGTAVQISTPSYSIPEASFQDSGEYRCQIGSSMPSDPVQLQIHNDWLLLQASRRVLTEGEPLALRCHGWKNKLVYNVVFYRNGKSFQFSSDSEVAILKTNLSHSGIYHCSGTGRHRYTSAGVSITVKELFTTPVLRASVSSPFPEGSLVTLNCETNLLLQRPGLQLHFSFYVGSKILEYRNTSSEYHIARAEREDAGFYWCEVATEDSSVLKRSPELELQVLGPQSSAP

T5: mouse FcγRIII (mouse, UniProt P08508 31-215)
T5 construct: bought; also called mFcgRIII; mFcgR III
T5 sequence (looked up): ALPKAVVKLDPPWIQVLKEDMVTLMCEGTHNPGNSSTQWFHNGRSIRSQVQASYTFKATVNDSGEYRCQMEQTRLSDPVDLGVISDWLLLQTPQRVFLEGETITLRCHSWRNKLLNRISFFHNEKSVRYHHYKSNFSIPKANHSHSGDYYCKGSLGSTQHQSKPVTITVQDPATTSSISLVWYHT

T6: mouse FcγRIIb (mouse, UniProt P08101 30-207, limits assumed)
T6 construct: bought; also called mFcgRIIb; mFcgR IIb
T6 sequence (looked up): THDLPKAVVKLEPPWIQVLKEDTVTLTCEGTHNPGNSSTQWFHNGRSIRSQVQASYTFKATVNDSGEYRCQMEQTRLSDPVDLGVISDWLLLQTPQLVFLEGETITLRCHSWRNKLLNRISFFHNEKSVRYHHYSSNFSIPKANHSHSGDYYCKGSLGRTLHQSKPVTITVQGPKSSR

T7: mouse FcγRIV (mouse, UniProt A0A0B4J1G0 21-203)
T7 construct: bought; also called mFcgRIV; mFcgR IV; the vendor's purification tag not given
T7 sequence: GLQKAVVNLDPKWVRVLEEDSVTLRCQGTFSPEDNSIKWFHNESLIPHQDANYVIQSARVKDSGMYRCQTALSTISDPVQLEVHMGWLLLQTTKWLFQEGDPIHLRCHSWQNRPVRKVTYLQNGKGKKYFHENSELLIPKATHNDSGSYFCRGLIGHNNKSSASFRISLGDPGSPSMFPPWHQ


Key:
human FcγRIIa(R) = molecular target: T1, human FcγRIIa(R); experiment: SPR, antibody captured by Protein L, human FcγR as analyte, pH 7.4, 25 C;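 note: biacore T100 or T200 with Protein L amine-coupled on a CM4 chip, FcγRs diluted in ACES saline with polysorbate 20, buffer-only injection as blank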
human FcγRIIa(H) = molecular target: T2, human FcγRIIa(H); experiment: as above
human FcγRIIb = molecular target: T3, human FcγRIIb; experiment: as above
human FcγRIa = molecular target: T8, human FcγRIa (human, UniProt P12314 16-292, limits assumed); experiment: as above
T8 construct: also called hFcgRIa; hFcgRI

human FcγRIIIa(V) = molecular target: T9, human FcγRIIIa(V) (human, UniProt P08637 17-208, limits assumed); experiment: as above
T9 construct: also called hFcgRIIIa(V); allotype V158

[1] = molecular target: T10, human FcRn (soluble human FcRn complexed with β2-microglobulin) (human, UniProt P61769 21-119, limits assumed); experiment: SPR, antibody captured by Protein L, human FcRn as analyte, pH 7.0, 25 C
T10 construct: also called hFcRn

mouse FcγRI [2] = molecular target: T4, mouse FcγRI; experiment: SPR, antibody captured by Protein L, mouse FcγR as analyte, pH 7.4, 25 C
mouse FcγRIII [3] = molecular target: T5, mouse FcγRIII; experiment: as above
mouse FcγRIIb [4] = molecular target: T6, mouse FcγRIIb; experiment: as above
mouse FcγRIV [5] = molecular target: T7, mouse FcγRIV; experiment: as above
mouse FcγRI [6] = molecular target: T4, mouse FcγRI; experiment: as above; remark: listed apart in the source
mouse FcγRIII [7] = molecular target: T5, mouse FcγRIII; experiment: as above; remark: listed apart in the source
mouse FcγRIIb [8] = molecular target: T6, mouse FcγRIIb; experiment: as above; remark: listed apart in the source
mouse FcγRIV [9] = molecular target: T7, mouse FcγRIV; experiment: as above; remark: listed apart in the source

T8 sequence (P12314 16-292 limits assumed): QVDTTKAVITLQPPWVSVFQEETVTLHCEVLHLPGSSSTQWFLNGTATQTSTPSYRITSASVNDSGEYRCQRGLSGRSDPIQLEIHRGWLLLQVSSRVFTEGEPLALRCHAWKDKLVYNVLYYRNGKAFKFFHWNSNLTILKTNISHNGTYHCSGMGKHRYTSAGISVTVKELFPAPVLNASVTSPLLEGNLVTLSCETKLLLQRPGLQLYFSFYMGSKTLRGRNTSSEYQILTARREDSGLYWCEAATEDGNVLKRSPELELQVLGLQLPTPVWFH
T9 sequence (P08637 other isoform, or with tags, fused parts or gaps limits assumed): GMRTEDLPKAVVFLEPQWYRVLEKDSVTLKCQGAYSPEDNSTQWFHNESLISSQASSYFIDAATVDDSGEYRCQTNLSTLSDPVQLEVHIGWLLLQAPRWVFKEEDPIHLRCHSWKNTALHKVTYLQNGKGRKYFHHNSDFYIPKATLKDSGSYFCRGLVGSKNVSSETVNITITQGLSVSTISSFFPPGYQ

BINDING AMOUNT (RU) (human FcγRIIa(R)) | BINDING AMOUNT (RU) (human FcγRIIa(H)) | BINDING AMOUNT (RU) (human FcγRIIb) | BINDING AMOUNT (RU) (human FcγRIa) | BINDING AMOUNT (RU) (human FcγRIIIa(V)) | Kd [1] | BINDING AMOUNT (RU) (mouse FcγRI [2]) | BINDING AMOUNT (RU) (mouse FcγRIII [3]) | BINDING AMOUNT (RU) (mouse FcγRIIb [4]) | BINDING AMOUNT (RU) (mouse FcγRIV [5]) | BINDING AMOUNT (RU) (mouse FcγRI [6]) | BINDING AMOUNT (RU) (mouse FcγRIII [7]) | BINDING AMOUNT (RU) (mouse FcγRIIb [8]) | BINDING AMOUNT (RU) (mouse FcγRIV [9]) | Binder
128 RU | 117 RU | 54.1 RU | 363 RU | 180 RU | 110 nM | 268 RU | 284 RU | 69.3 RU | 230 RU | – | – | – | – | antibody with VH3-IgG1-F890 heavy chain and L(WT)-CK light chain (antibody, M252Y/N434Y/Y436V; copies: 2 + 2) heavy: QVQLQESGPGLVKPSETLSLTCAVSGHSISHDHAWSWVRQPPGEGLEWIGFISYSGITNYNPSLQGRVTISRDNSKNTLYLQMNSLRAEDTAVYYCARSLARTTAMDYWGEGTLVTVSSASTKGPSVFPLAPSSKSTSGGTAALGCLVKDYFPEPVTVSWNSGALTSGVHTFPAVLQSSGLYSLSSVVTVPSSSLGTQTYICNVNHKPSNTKVDKKVEPKSCDKTHTCPPCPAPELLGGPSVFLFPPKPKDTLYISRTPEVTCVVVDVSHEDPEVKFNWYVDGVEVHNAKTKPREEQYNSTYRVVSVLTVLHQDWLNGKEYKCKVSNKALPAPIEKTISKAKGQPREPQVYTLPPSRDELTKNQVSLTCLVKGFYPSDIAVEWESNGQPENNYKTTPPVLDSDGSFFLYSKLTVDKSRWQQGNVFSCSVMHEALHYHVTQKSLSLSP light: not shown
-0.8 RU | -0.9 RU | -0.2 RU | -2.37 RU | -0.75 RU | 150 nM | -2 RU | -24.9 RU | -6.3 RU | -7.3 RU | – | – | – | – | antibody with VH3-IgG1-F939 heavy chain and L(WT)-CK light chain (antibody, L235R/S239K/M252Y/N434Y/Y436V; copies: 2 + 2) heavy: QVQLQESGPGLVKPSETLSLTCAVSGHSISHDHAWSWVRQPPGEGLEWIGFISYSGITNYNPSLQGRVTISRDNSKNTLYLQMNSLRAEDTAVYYCARSLARTTAMDYWGEGTLVTVSSASTKGPSVFPLAPSSKSTSGGTAALGCLVKDYFPEPVTVSWNSGALTSGVHTFPAVLQSSGLYSLSSVVTVPSSSLGTQTYICNVNHKPSNTKVDKKVEPKSCDKTHTCPPCPAPELRGGPKVFLFPPKPKDTLYISRTPEVTCVVVDVSHEDPEVKFNWYVDGVEVHNAKTKPREEQYNSTYRVVSVLTVLHQDWLNGKEYKCKVSNKALPAPIEKTISKAKGQPREPQVYTLPPSRDELTKNQVSLTCLVKGFYPSDIAVEWESNGQPENNYKTTPPVLDSDGSFFLYSKLTVDKSRWQQGNVFSCSVMHEALHYHVTQKSLSLSP light: not shown
– | – | – | – | – | – | – | – | – | – | -2 RU | 450 RU | 202 RU | -3.5 RU | antibody with mPM1H-mIgG1 heavy chain and L(WT)-CK light chain (antibody, mouse IgG1 heavy chain with natural mouse Fc region; also called mPM1-mIgG1; copies: 2 + 2) heavy: DVQLQESGPVLVKPSQSLSLTCTVTGYSITSDHAWSWIRQFPGNKLEWMGYISYSGITTYNPSLKSRISITRDTSKNQFFLQLNSVTTGDTSTYYCARSLARTTAMDYWGQGTSVTVSSAKTTPPSVYPLAPGSAAQTNSMVTLGCLVKGYFPEPVTVTWNSGSLSSGVHTFPAVLQSDLYTLSSSVTVPSSTWPSETVTCNVAHPASSTKVDKKIVPRDCGCKPCICTVPEVSSVFIFPPKPKDVLTITLTPKVTCVVVDISKDDPEVQFSWFVDDVEVHTAQTQPREEQFNSTFRSVSELPIMHQDWLNGKEFKCRVNSAAFPAPIEKTISKTKGRPKAPQVYTIPPPKEQMAKDKVSLTCMITDFFPEDITVEWQWNGQPAENYKNTQPIMDTDGSYFVYSKLNVQKSNWEAGNTFTCSVLHEGLHNHHTEKSLSHSPGK light: not shown
